± gives the half width of the 95% confidence interval.
What was measured:
[1] = folding stability dG unfold from trypsin proteolysis; higher = more stable
Summary of the method: (§1)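 Only designs with AlphaFold2 dimer inter-PAE above 15 were retained; each was a mini-protein under 80 residues with no cysteine, in a PA-tagged cDNA display construct. After digestion with trypsin and chymotrypsin and sequencing, K50 was inferred by Bayesian fitting of counts, and unfolding free energy was derived per protease or combined against a sequence-predicted unfolded-state K50 and a shared folded-state K50.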

[2] = folding stability dG unfold from chymotrypsin proteolysis; higher = more stable
Summary of the method: as §1

[3] = folding stability dG unfold (combined trypsin and chymotrypsin); higher = more stable
Summary of the method: as §1

Row | Sequence | folding stability dG unfold [1] | folding stability dG unfold [2] | folding stability dG unfold [3]
1 | SAGGSAGGSAGKAKIEVVEVDKNGKVRLKIKLENGEVKEIENADEITINGKKIKVEKIEPSAGGSAGGSAGG [r11_1017_TrROS_Hall] | -0.311 ± 0.25 kcal/mol | 1.52 ± 0.042 kcal/mol | 1.11 ± 0.1 kcal/mol
2 | SAGGSAGGRKTRRLVLEVDDIPEGVSAEELTEEELRRLGLPPDARIRVVRRPDGRLLVVIEVRESAGGSAGG [r6_551_TrROS_Hall] | 1.64 ± 0.022 kcal/mol | 2.71 ± 0.0092 kcal/mol | 2.42 ± 0.051 kcal/mol
3 | SAGGSAGGITIRDPDNGIEVKILKITPNHMIIQAEFPNGRNYMIEMPPDSLKPGDEIPMTVHPVSAGGSAGG [r6_152_TrROS] | -0.008 ± 0.17 kcal/mol | -0.14 ± 0.41 kcal/mol | -0.148 ± 0.3 kcal/mol
4 | SAGGGIAEILEIREFEDGVEILILTDDLDDPEIIEELIDEIAEELGLPKEKIRAHIIPADIPPLPDEESAGG [r13_430_TrMRF] | 1.22 ± 0.061 kcal/mol | 1.18 ± 0.1 kcal/mol | 1.04 ± 0.24 kcal/mol
5 | SAGGSAGGPPGEPPDVKVIPIEIEHERYNPDDGEMEVETIPFPIVIAPDGTIYHGDRPIPPDDISAGGSAGG [r6_515_TrROS] | 2.02 ± 0.24 kcal/mol | 1.41 ± 0.09 kcal/mol | 1.8 ± 0.41 kcal/mol
6 | SAGGDPETPTTITAPVDPATGTTTWVVNDGSSTSTIPSSLSLEELKKLGLTKAEPLPDGTLRFTILASAGGS [r8_382_JUSTAS] | 0.289 ± 0.022 kcal/mol | 0.494 ± 0.081 kcal/mol | 0.495 ± 0.053 kcal/mol
7 | SAGGSAGGSAGGETVVLVTYDKETKTLTVQTFELENGELKTTTKTVTLTDEQLESLPPASAGGSAGGSAGGS [r10_291_TrROS_Hall] | 1.39 ± 0.07 kcal/mol | 1.99 ± 0.083 kcal/mol | 1.87 ± 0.18 kcal/mol
8 | SAGGSVEEIAERLAKELAPPDERVEVEVEEIVTDPVVGKIKEVKIKATIYPPDGTTRTVEYTIPYDELSAGG [r13_215_JUSTAS] | 0.407 ± 0.029 kcal/mol | 0.704 ± 0.028 kcal/mol | 0.612 ± 0.056 kcal/mol
9 | SAGGSAGGSASLSPEKKVTIKTTVPQPTPPAVTTTLTGQFPSSLTLEELAEKDPNATVSITGSAGGSAGGSA [r18_279_JUSTAS] | 0.221 ± 0.059 kcal/mol | 1.36 ± 0.014 kcal/mol | 1.04 ± 0.055 kcal/mol
10 | SAGGSAFPTIAESPGVVKIEPLPDGTIKITFNTSEEAKEKIIEELKKLGNFNVEEDPEKPVLIVKKSAGGSA [r15_554_JUSTAS] | 1.7 ± 0.087 kcal/mol | 2.95 ± 0.059 kcal/mol | 2.6 ± 0.098 kcal/mol
11 | SAANTEEITITVPLTDPETGEERTVTIPVKYVNTNKPYKTPNGSTKTIPVPKSTVIKEAEEEAKKIFESSSA [r9_698_JUSTAS] | -0.381 ± 0.95 kcal/mol | 0.213 ± 0.3 kcal/mol | -0.369 ± 0.56 kcal/mol
12 | SMVTETSEEVKLPSPVRLLIDKKITTFPESGVVEVPTLVTVIPPSGPDTTLPYRVLYTINDDTYTEKRLLSA [r9_154_JUSTAS] | -0.277 ± 0.085 kcal/mol | -0.0857 ± 0.12 kcal/mol | -0.125 ± 0.14 kcal/mol
13 | SAEKEYKVKVKVKIEIVELSEEELENLPPGALVIEVDGKLYLMRIEVEEVEVEEVPEEPEVDEETGELLSAG [r14_126_TrROS_Hall] | 2.28 ± 0.16 kcal/mol | 3.86 ± 0.1 kcal/mol | 3.33 ± 0.17 kcal/mol
14 | SAGGSAGGSAGNMEVIEEVEFTFPGLGVKISVSIFKTDGGIVIMIDIEIPMPPEDRKKFKSAGGSAGGSAGG [r17_431_TrROS] | 0.857 ± 0.097 kcal/mol | 1.61 ± 0.18 kcal/mol | 1.25 ± 0.15 kcal/mol
15 | SMKTVVIKIRKKDGKVTLEEIREAIKALLPPGAKVKLTEEELEKLVEELEKKTGKEITADDLVIVVEVEPSA [r9_197_TrROS_Hall] | 2.29 ± 0.085 kcal/mol | 2.59 ± 0.081 kcal/mol | 2.51 ± 0.16 kcal/mol
16 | SAGGSAGGSAGGPPVTLLVVVRNEDGSLYLVRVEFDLETNEVKVEVFTLDDLKNLPEELSAGGSAGGSAGGS [r10_1077_TrROS_Hall] | 2.14 ± 0.14 kcal/mol | 3.66 ± 0.075 kcal/mol | 3.26 ± 0.25 kcal/mol
17 | GENVPPKTVTVSAPVDPTTGRVTVNPGNTTVSISLPDGADVTLSFSTSMSEEEQLAFVEKEAAALNAALAAS [r1_25_JUSTAS] | 1.64 ± 0.027 kcal/mol | 0.443 ± 0.055 kcal/mol | 1.18 ± 0.048 kcal/mol
18 | SAGGPLTLTIPLPDGTTITVTLTRNPDTPSYTATADITFPDGSVVRIHATINSDGSITIHSVEVFPASAGGS [r16_213_TrMRF] | 4.51 ± 0.57 kcal/mol | 5.06 ± 0.24 kcal/mol | 5.19 ± 0.18 kcal/mol
19 | SAGGMKIGVLLPKSIPPEKAEEFLKKLNPDLEVEYRPVEPGSLKDIPPEIEVIVLPADDDFALALVKPSAGG [r13_649_TrMRF] | 0.323 ± 0.044 kcal/mol | -0.401 ± 0.12 kcal/mol | 0.00463 ± 0.11 kcal/mol
20 | SAGEPEKVTITLVDEETGVVITIEIDKETKKITITVESEEERERARELAERLAKELEEAGIKVEILPPSAGG [r19_354_TrROS_Hall] | 2.91 ± 0.14 kcal/mol | 2.26 ± 0.18 kcal/mol | 2.73 ± 0.16 kcal/mol
21 | SAGGMKIEFDEKTKRITITLPDGKKVEIELKDGRKVEITFERVDGKLKVVIKHKNEEEALELAKKLLSAGGS [r16_623_TrROS_Hall] | 1.15 ± 0.086 kcal/mol | 1.34 ± 0.082 kcal/mol | 1.55 ± 0.26 kcal/mol

Row | Sequence | folding stability dG unfold [1] | folding stability dG unfold [2] | folding stability dG unfold [3]
22 | SAGGKKVIITKVETNKNGKKTYTVTLYYKDKKTNEWKKVAEFTFESKEEAENAAKELAKKLNLKIIPSAGGS [r16_512_TrROS_Hall] | 3.08 ± 0.087 kcal/mol | 5 ± 0.088 kcal/mol | 4.77 ± 0.11 kcal/mol
23 | SAGGSAGGSMRIKTIKVIPQDDGMYSINITFPGVEREIPIPPQMPPDQITEIEIPIYFDGEPPSAGGSAGGS [r12_673_TrROS] | -0.257 ± 0.16 kcal/mol | 0.436 ± 0.12 kcal/mol | 0.212 ± 0.097 kcal/mol
24 | SAGGSKKKKPEKPPVVLIKITVEETGKEITIPLEELRNMSAEELAKRIAEELRERYPGLKVRVEIVSAGGSA [r2_392_TrROS_Hall] | 1.49 ± 0.071 kcal/mol | 2.28 ± 0.11 kcal/mol | 2.07 ± 0.17 kcal/mol
25 | SAEKIYYKVKVKVEIEKDGKPDIELEIEFIVSPEIPPEKVKEFIEKFLKSKGYKIKKIEIETEPIPSLESAG [r14_979_TrMRF] | 3.95 ± 0.31 kcal/mol | 4.86 ± 0.13 kcal/mol | 5.03 ± 0.29 kcal/mol
26 | SSLEIPPEVLAEIKKAALEGDDEKVKELLKELGFTKVEIKYEKLDGKVKLTIKVEHPEGPATITFSDELLSA [r9_783_JUSTAS] | 3.36 ± 0.18 kcal/mol | 4.15 ± 0.15 kcal/mol | 4.23 ± 0.28 kcal/mol
27 | GHRIKVNTVHTPSGTFSLTATVRYPDGTTVTYSFNLPSSPNDTFSVSVPESVPLTTVTTSTFQGDTETPTSS [r1_70_JUSTAS] | 1.02 ± 0.044 kcal/mol | 1.69 ± 0.18 kcal/mol | 1.49 ± 0.12 kcal/mol
28 | SAGGKYEYDPDNGYYRDEDGKMYYPMPPQIPPIEIPIPINLPNGQKLNIPVEFRTIEDALDALKKFFSAGGS [r8_440_TrROS] | 0.697 ± 0.033 kcal/mol | 1.13 ± 0.091 kcal/mol | 1.01 ± 0.14 kcal/mol
29 | SAGGSAGGSAGAKVKVFKVRAEVKLTRTADGELVAEVTEVEIEEVEVEVRPPPPPPLPPASAGGSAGGSAGG [r11_381_TrROS_Hall] | 1.67 ± 0.24 kcal/mol | 3.11 ± 0.14 kcal/mol | 2.92 ± 0.35 kcal/mol
30 | SAKKVEVKKIKVEVTFYDKNGKKVKKKKATITVVKVDGKYYVTIYDENTGKKYVFEFPSLEEAKKALKKSAG [r14_508_TrROS_Hall] | 1.91 ± 0.11 kcal/mol | 3.09 ± 0.044 kcal/mol | 2.77 ± 0.33 kcal/mol
31 | SMKPGQTVTFNVMIRMKDPNMTAQEFAEEAADEIAENFPPGVKIEIKVDDIEPDPPNGEVYFMVKITITVSA [r9_706_TrROS] | 2.54 ± 0.17 kcal/mol | 4 ± 0.13 kcal/mol | 3.35 ± 0.23 kcal/mol
32 | SAGGSAGGSAAITIPVPPGETVTIKIEIEMTVPPNQRNPDGQRMKPGQKVRMEVTFTFRVDGSAGGSAGGSA [r18_450_TrROS] | 3 ± 0.11 kcal/mol | 4.63 ± 0.058 kcal/mol | 4.24 ± 0.13 kcal/mol
33 | SMNPIGNPITLPDGTTITIIPDLGLILIYDPETGTFIARLILVDENGIPHIFPFIGKIDPETGEIIEIDPSA [r9_122_TrMRF] | 3.31 ± 0.11 kcal/mol | 4.13 ± 0.062 kcal/mol | 3.87 ± 0.069 kcal/mol
34 | SAGGSAGGSAEEPEFEIVSVEYDPETNVLTVVVRDKKTGRLYVFRFYPDGTVEVREVSLEDLSAGGSAGGSA [r18_521_TrROS_Hall] | 3.37 ± 0.064 kcal/mol | 5.03 ± 0.057 kcal/mol | 4.74 ± 0.076 kcal/mol
35 | SAGGSAGGSAGKMLLIEIEVDGKKYLIEIEVPEGEEITPEELAKLLGIPNVKVKVYELEESAGGSAGGSAGG [r11_219_TrROS_Hall] | 2.47 ± 0.065 kcal/mol | 3.41 ± 0.04 kcal/mol | 3.11 ± 0.13 kcal/mol
36 | SAGGRAEEFATFLAELLRALLPPGEKVRATAVVTPEGVVVRVEHPLGFVAEALVKGDKLVRLELRPVSAGGS [r8_287_TrMRF] | 3.17 ± 0.13 kcal/mol | 3.82 ± 0.09 kcal/mol | 3.6 ± 0.11 kcal/mol
37 | SMYKLSVYRNGQPVPEEEALERVKRIEEELGREVDPEELARLLAAEPDTVVTVTKYAEPGKPIGTLTYTRSA [r9_1045_JUSTAS] | 1.32 ± 0.08 kcal/mol | 1.4 ± 0.17 kcal/mol | 1.39 ± 0.16 kcal/mol
38 | SMKKTYTFPVTLVPKDGKASLTVNWYAPDGTSLGTQTKSASAEGNTVTATVTVTVDAPPGAKIPSITVNASA [r9_292_JUSTAS] | 0.091 ± 0.041 kcal/mol | 0.473 ± 0.052 kcal/mol | 0.353 ± 0.038 kcal/mol
39 | SAGGSAGGSAPKVEPHPVTFTFENAVVTVTRYRVPDEDGNPLYFTSVSVFFLDKDGKPGFVFPSAGGSAGGS [r20_13_TrMRF] | 3.28 ± 0.076 kcal/mol | 4.82 ± 0.069 kcal/mol | 4.35 ± 0.18 kcal/mol
40 | SAGGSAGGSAGGSNPVDIVEILSYDPEKNTYTFLVKLPDGSTKTITVPGLSVEEIKKELSAGGSAGGSAGGS [r4_357_JUSTAS] | 1.57 ± 0.083 kcal/mol | 3.276 ± 0.029 kcal/mol | 2.86 ± 0.085 kcal/mol
41 | SAGMPKPVVTPVTLPVNGALITFTVDPEVPLATFTFDEPDVNAVAEEYAKERAAELEKAGIPTKIVPSSAGG [r19_354_JUSTAS] | 0.3 ± 0.041 kcal/mol | 0.743 ± 0.11 kcal/mol | 0.662 ± 0.16 kcal/mol

From the supplement of paper PMC12764529
